The values below come from article PMC3472098.

The data set has as its target T1, Rrp44exo- (exoribonuclease-dead) (budding yeast, UniProt Q08162 1-1001, D551N).
T1 sequence: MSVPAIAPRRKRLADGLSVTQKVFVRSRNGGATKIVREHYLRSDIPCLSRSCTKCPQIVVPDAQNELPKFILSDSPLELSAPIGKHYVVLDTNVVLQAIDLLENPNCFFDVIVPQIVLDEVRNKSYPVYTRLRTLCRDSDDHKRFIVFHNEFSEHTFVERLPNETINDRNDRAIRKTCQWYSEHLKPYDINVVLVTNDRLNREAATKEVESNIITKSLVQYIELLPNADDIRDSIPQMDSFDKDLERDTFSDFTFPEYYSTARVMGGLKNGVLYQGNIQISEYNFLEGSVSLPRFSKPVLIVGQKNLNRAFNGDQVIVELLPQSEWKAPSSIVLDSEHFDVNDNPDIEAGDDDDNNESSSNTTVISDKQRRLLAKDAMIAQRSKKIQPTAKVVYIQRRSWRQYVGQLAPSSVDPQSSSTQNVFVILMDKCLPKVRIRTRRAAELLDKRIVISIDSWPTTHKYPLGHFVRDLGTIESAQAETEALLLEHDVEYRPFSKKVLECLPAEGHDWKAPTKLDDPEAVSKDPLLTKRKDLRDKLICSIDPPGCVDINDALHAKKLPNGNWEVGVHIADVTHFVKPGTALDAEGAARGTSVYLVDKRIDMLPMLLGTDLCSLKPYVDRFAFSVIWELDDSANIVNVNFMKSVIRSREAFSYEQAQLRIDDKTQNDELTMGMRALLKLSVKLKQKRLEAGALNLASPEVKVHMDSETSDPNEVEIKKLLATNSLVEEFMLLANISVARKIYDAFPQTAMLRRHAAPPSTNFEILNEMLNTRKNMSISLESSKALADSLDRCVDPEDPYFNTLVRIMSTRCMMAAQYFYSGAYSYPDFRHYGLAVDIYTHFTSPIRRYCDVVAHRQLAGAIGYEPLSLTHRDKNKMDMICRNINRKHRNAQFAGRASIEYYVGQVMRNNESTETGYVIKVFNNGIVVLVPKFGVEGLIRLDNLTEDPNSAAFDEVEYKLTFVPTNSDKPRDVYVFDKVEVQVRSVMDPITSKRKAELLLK
The experiment in a line: fluorescence polarization.

With AAAAAAAAAAAAAAAAAAAAAAAAAAAAAAAAAAAAAAAAAAAAAAAAA (ssRNA) [polyA RNA 49 nt], the binding result is given as “binds”.
